Reference: the supplement of paper PMC5998384

What was measured:
[1] = system: HeLa Kyoto; assay: solubility change mitosis vs G1/S (difference of NP-40 vs SDS log2 ratios) (log2 ratio difference); higher = more soluble in mitosis
[2] = system: HeLa Kyoto; assay: thermal stability score vs G1/S (z-score of summed log2 fold changes over temperatures); higher = more thermally stable than in G1/S
[3] = system: HeLa Kyoto; assay: solubility in G1/S (NP-40 vs SDS abundance) (log2 ratio); higher = more soluble; details: cell cycle stage: G1/S
[4] = system: HeLa Kyoto; assay: melting temperature (median over replicates), in situ; higher = more thermally stable
[5] = cell cycle stage: early G1 (4.5 h after nocodazole release)
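Throughout, for melting temperature (median over replicates), in situ: HeLa Kyoto cells synchronized by double thymidine or nocodazole block, proteins quantified by TMT10plex mass spectrometry, three independent biological replicates.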
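Throughout, for solubility change mitosis vs G1/S (difference of NP-40 vs SDS log2 ratios): synchronized HeLa Kyoto cells (double thymidine block for G1/S, nocodazole release for mitosis), protein amounts in NP-40 versus SDS lysates quantified by mass spectrometry, three biological replicates.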
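Throughout, for solubility in G1/S (NP-40 vs SDS abundance): HeLa Kyoto cells arrested at G1/S by double thymidine block, proteins quantified by TMT10plex mass spectrometry in mild NP-40 versus SDS extracts, three biological replicates.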
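Throughout, for thermal stability score vs G1/S (z-score of summed log2 fold changes over temperatures): synchronized HeLa Kyoto cells, proteins quantified by TMT10plex mass spectrometry, three biological replicates, mitosis taken 0.5 h after nocodazole release, G1/S directly after double thymidine block.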

CYCS, sequence (chain, as listed by the source): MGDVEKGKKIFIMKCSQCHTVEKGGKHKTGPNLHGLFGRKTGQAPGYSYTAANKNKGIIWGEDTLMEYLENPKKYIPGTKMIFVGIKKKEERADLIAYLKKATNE
COPE, sequence (chain, as listed by the source): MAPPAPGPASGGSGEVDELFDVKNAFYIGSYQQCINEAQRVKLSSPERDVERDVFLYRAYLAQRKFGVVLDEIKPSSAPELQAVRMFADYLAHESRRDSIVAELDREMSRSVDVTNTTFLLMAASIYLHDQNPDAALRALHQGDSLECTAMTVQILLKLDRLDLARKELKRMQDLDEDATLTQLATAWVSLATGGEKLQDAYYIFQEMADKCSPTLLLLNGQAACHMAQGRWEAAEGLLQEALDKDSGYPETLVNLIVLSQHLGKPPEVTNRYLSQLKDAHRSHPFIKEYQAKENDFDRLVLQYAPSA
CDC42, sequence (chain, as listed by the source): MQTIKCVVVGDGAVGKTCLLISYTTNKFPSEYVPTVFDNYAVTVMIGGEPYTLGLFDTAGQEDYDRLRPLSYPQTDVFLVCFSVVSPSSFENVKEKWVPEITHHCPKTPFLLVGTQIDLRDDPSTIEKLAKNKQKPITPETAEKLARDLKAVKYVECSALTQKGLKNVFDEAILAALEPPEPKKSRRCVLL
ANKH, sequence (chain, as listed by the source): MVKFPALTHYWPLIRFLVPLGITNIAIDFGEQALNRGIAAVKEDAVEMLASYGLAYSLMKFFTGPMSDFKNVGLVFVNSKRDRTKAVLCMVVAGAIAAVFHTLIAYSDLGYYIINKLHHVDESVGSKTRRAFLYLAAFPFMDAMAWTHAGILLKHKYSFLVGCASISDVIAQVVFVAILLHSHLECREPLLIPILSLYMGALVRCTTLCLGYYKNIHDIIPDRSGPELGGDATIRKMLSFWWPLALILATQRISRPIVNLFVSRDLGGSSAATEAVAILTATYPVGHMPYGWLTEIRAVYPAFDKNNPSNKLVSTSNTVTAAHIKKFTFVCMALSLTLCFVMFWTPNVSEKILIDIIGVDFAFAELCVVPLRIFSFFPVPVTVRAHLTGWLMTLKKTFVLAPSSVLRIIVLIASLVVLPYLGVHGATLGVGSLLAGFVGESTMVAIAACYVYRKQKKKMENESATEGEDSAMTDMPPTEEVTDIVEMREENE
DBNL, sequence (chain, as listed by the source): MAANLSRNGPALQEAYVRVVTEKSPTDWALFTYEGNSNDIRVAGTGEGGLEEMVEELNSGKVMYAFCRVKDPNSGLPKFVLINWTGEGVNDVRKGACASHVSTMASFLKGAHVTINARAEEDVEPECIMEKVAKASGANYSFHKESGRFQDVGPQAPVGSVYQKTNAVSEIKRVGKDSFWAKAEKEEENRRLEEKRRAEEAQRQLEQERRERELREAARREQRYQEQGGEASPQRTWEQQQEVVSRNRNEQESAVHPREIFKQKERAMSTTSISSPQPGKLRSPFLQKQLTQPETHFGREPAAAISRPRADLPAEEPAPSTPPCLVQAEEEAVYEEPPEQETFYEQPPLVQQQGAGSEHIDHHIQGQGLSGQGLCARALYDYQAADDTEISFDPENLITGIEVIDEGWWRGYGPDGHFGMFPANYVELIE
ARFGAP2, sequence (chain, as listed by the source): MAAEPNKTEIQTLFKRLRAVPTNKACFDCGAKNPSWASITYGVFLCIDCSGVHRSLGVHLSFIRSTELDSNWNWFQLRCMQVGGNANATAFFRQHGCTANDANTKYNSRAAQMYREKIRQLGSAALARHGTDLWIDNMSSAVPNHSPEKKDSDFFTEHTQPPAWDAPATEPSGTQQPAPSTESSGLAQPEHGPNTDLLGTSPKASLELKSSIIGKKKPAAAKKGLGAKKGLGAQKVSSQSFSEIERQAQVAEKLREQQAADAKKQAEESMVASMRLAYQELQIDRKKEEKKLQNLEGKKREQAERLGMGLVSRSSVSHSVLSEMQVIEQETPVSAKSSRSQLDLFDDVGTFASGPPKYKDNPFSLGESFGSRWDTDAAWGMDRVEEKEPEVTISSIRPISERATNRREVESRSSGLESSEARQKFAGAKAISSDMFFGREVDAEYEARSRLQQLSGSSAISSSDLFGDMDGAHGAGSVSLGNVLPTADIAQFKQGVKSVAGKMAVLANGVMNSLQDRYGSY
CDK16, sequence (chain, as listed by the source): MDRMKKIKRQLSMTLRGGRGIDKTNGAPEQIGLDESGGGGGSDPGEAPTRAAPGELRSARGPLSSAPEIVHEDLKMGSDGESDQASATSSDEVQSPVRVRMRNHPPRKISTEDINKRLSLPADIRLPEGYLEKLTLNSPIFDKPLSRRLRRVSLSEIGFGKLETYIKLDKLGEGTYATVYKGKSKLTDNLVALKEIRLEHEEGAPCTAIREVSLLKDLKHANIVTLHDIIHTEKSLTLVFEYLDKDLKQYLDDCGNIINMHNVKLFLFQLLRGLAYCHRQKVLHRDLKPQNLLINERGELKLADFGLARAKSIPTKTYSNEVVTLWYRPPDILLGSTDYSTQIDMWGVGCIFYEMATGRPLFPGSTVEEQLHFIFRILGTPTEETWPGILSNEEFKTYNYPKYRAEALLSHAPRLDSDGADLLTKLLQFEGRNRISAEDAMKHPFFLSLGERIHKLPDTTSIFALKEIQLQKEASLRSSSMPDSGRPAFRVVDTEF

Substance	solubility change mitosis (log2) [1]	thermal stability score [2, 5]	thermal stability score ([2]; cell cycle stage: mitosis)	solubility in G1/S (log2) [3]	melting temperature ([4]; cell cycle stage: G1/S)	melting temperature ([4]; cell cycle stage: mitosis)
AKAP9	-0.0345	1.11	1.77	-0.0993	49.3 °C	49.6 °C
ALDH3A2	-0.0531	-0.835	-0.622	-0.186	51 °C	50.7 °C
ANKH	0.155	-1.21	-1.75	-0.292	54.9 °C	58.2 °C
ARFGAP2	-0.11	-0.318	-0.233	0.205	49.6 °C	49.4 °C
ARFGEF2	-0.155	0.0515	-0.274	-0.186	50.7 °C	50.5 °C
ARHGAP35	-0.124	1.69	3.46	-0.0977	48.6 °C	49.4 °C
ARHGEF12	-0.0996	-0.146	0.3	-0.0555	50.7 °C	50.4 °C
ASL	0.00521	3.02	4.07	-0.0391	51.4 °C	52.1 °C
ATP1B3	0.0393	-1.58	-2.77	0.832	55.5 °C	56.1 °C
ATP13A1	-0.00617	-0.031	-0.441	-0.281	53.1 °C	52.9 °C
BIRC6	-0.125	-0.354	-0.341	-0.141	51.6 °C	51.2 °C
CAD	-0.146	-0.499	0.0146	-0.137	50.6 °C	50 °C
CARKD	-0.211	-0.234	-1.33	0.243	54.8 °C	56.1 °C
CASC5	-0.0741	1.3	1.4	-0.247	47.7 °C	48.3 °C
CDC42	-0.0727	-1.73	1.82	0.629	60.1 °C	59.8 °C
CDC42BPA	-0.0814	-0.472	0.207	-0.143	49.8 °C	50.3 °C
CDK16	-0.105	-0.616	0.901	0.548	50.7 °C	53.1 °C
CELSR2	-0.142	-4.5	-5.14	0.141	56.8 °C	54.6 °C

Substance	solubility change mitosis (log2) [1]	thermal stability score [2, 5]	thermal stability score ([2]; cell cycle stage: mitosis)	solubility in G1/S (log2) [3]	melting temperature ([4]; cell cycle stage: G1/S)	melting temperature ([4]; cell cycle stage: mitosis)
CEP170	0.0625	0.653	2.64	-0.112	50.3 °C	51.5 °C
CIT	-0.113	0.287	0.352	-0.0433	50.1 °C	50.4 °C
CLASP1	-0.0633	-0.916	0.139	-0.0269	48.8 °C	49.2 °C
CLTCL1	-0.0594	0.282	0.64	-0.305	50.8 °C	49.8 °C
COL5A1	0.0059	-0.461	1.15	-0.2	55.6 °C	55.3 °C
COPE	0.0106	-0.526	-0.936	0.212	50.3 °C	50.9 °C
CSPG4	0.0955	-3.28	0.175	0.0261	54.8 °C	55 °C
CTSC	-0.0557	5.96	4.92	0.136	56.8 °C	59 °C
CTSZ	-0.0457	-1.5	-2.8	0.192	56.1 °C	55 °C
CYCS	0.139	-1.79	-2.79	-0.131	57.1 °C	52.2 °C
DBNL	-0.0864	-0.295	-0.854	0.177	49.5 °C	50.5 °C
DICER1	-0.07	-0.0197	0.111	-0.101	50.7 °C	50.1 °C
DIP2A	-0.0755	0.00154	0.398	-0.104	51.3 °C	
DIP2B	-0.12	-1.32	-2.08	-0.125	53.4 °C	53.1 °C
DMXL1	-0.0423	0.592	1.02	-0.236	51.4 °C	50.9 °C
DNAJA2	-0.191	-0.554	-2.34	0.258	51.7 °C	51.7 °C
DNAJB6	0.0684	0.898	1.65	-0.0238	52.8 °C	49.8 °C
DNAJC13	-0.026	-0.329	-1.08	-0.463	50.8 °C	50.3 °C
